Consider six molecules from US20140087995A1 (published 2014).

Numbered stars: 1 amine (or outer) side, 2 acyl side, 3 side chain; on linkers, the order of the positions; unused ones are H or OH. Bridge positions count the residues as written; N and C are the ends. Side chains are listed from the residue outwards. Ends that are not written are not given here. * marks the point of attachment. C20 diacid = O=C(O)CCCCCCCCCCCCCCCCCCC(=O)*; γGlu = O=C(O)[C@H](CCC(=O)[*:2])N[*:1]

For test [1], the target named is T1, human calcitonin receptor (human, UniProt P30988 25-474).
T1 construct: whole, on cells; also called hCTR; hCT
T1 sequence (looked up): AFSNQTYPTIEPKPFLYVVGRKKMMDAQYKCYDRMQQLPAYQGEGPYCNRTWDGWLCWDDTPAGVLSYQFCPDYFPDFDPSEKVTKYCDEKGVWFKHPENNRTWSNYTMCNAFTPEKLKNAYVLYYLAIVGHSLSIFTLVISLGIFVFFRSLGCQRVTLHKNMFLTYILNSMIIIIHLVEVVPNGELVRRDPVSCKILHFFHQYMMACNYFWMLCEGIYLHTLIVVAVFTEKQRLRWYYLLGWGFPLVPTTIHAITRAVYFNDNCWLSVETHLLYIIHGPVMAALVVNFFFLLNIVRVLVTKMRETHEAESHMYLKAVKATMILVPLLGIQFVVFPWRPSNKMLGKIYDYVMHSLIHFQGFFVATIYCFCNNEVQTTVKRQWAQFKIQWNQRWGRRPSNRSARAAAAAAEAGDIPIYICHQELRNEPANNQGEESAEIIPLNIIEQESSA
The experiment in a line: SPA competition binding, membranes with human calcitonin receptor, displacement of 125I-calcitonin (Assay VII). Put shortly: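 BHK hCTR membranes 35 ng/μL + SPA beads 0.05 mg/well; buffer 50 mM Hepes pH 7.4, 1 mM CaCl2, 5 mM MgCl₂, 0.1% OA, 0.02% Tween20. 120 min, 25° C., shaking. Scintillation count; IC50 by one-site binding competition.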
Background: Loss of bound radioactivity is the signal in a displacement assay; it reports binding, not function.

The target of test [2] is T1, human calcitonin receptor. The experiment in a line: ratio of IC50 at hCTR to IC50 at the human amylin receptor (reference). Put shortly: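 IC₅₀ values were derived by one-site competition analysis of SPA counts. Cell membranes (35 ng/μL) with SPA beads were incubated with test compounds for 120 min at 25° C in Hepes buffer, pH 7.4, containing CaCl2, MgCl₂, OA and Tween20.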

Test [3] addresses T2, human amylin receptor (amylin 3(a) receptor: human calcitonin receptor plus RAMP-3) (human, UniProt P30988 25-474; O60896 24-148).
T2 construct: whole, on cells; the species of RAMP-3 is told only through the name 'human amylin receptor'; also called hAmylin-R; hAmylinR
T2 sequence (looked up) 1: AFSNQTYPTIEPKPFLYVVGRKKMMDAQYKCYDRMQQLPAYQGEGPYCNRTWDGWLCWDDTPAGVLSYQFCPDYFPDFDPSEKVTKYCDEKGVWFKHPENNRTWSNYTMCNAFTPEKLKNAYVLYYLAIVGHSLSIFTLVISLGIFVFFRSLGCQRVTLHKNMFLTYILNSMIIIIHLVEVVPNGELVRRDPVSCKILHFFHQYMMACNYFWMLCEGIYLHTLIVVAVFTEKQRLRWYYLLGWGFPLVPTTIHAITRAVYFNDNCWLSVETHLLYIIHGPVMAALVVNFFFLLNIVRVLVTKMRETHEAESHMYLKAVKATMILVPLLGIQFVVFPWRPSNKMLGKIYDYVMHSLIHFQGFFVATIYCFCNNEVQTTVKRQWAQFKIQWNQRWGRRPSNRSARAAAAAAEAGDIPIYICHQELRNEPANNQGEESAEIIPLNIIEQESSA
T2 sequence (looked up) 2: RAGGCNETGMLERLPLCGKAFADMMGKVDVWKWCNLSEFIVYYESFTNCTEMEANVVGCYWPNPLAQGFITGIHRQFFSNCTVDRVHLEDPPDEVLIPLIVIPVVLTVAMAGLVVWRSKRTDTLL
The test is described as follows: SPA competition binding, membranes with human amylin 3(a) receptor, displacement of 125I-rat amylin (Assay V). As for the experimental part:
The binding assay was performed using scintillation proximity assay (SPA) beads (RPNQ0001) from PerkinElmer and cell membranes from the Amylin 3(a)/CRE-luc cells (as described in Assay (II)) were used. Membranes were prepared in the following way; the cells were rinsed with PBS and incubated with Versene for approximately 5 min before harvesting. The cells were flushed with PBS and the cell-suspension was centrifuged for 5 min at 1000 rpm. Cells were homogenized (ultrathurrax) in a buffer containing 20 mM Na-HEPES and 10 mM EDTA (pH 7.4) and centrifuged at 20.000 rpm for 15 min. The resulting pellet was resuspended, homogenized and centrifuged (20.000 rpm, 15 min) in a buffer containing 20 mM Na-HEPES and 0.1 mM EDTA (pH 7.4, buffer 2). The resulting pellet was resuspended in buffer 2 and protein concentration was measured (BCA protein Assay, Pierce). The homogenate was kept cold during the whole procedure. The membranes were kept at −80° C. until use. The assay was performed in a 384 well Optiplate (PerkinElmer) in a total volume of 40 ul. Membranes were mixed with SPA beads. Final concentration of membranes 35 ng/μL final and SPA beads was 0.05 mg/well. Test-compounds were dissolved in DMSO and further diluted in assay buffer (50 mM Hepes, pH 7.4, 1 mM CaCl2, 5 mM MgCl₂, 0.1% OA and 0.02% Tween20). […] The final mixture was incubated with shaking at 400 rpm for 120 min at 25° C. prior to centrifugation (1500 rpm, 10 min). Samples were analyzed on TopCounter™ (Packard). The IC₅₀ was calculated using (one site binding competition analysis) GraphPad Prism5 as a measure of receptor affinity.

B1: N^α1-[2-[2-[2-[[2-[2-[2-[[(4S)-4-carboxy-4-(19-carboxynonadecanoylamino)butanoyl]amino]ethoxy]ethoxy]acetyl]amino]ethoxy]ethoxy]acetyl]-[Arg17,Pro21,Pro27]-h-am … (peptide)
peptide: KCNTATCATQRLANFLRHSSPNFGAIPSSTNVGSNTY
modifications: C20 diacid-gGlu-2xOEG on the alpha amino group of the N-terminal residue; disulfide bridge Cys2-Cys7; C-terminal amide
notes: also called compound 24
With B1, the IC50 came out at 102 nM in test [1] and 1.14 nM in test [3]. Also, the “Ratio hCT/hAmylin binding” value in test [2] turned out to be 90.

B2: N^α1-[(4S)-4-carboxy-4-(19-carboxynonadecanoylamino)butanoyl]-[Arg17,Pro21,Pro27,Pro34,Glu35]-h-amylin (peptide)
peptide: {C20 diacid-γGlu}-KCNTATCATQRLANFLRHSSPNFGAIPSSTNVGPETY-NH2
modifications: disulfide 2-7
SMILES: CC[C@H](C)[C@H](NC(=O)[C@H](C)NC(=O)CNC(=O)[C@H](Cc1ccccc1)NC(=O)[C@H](CC(N)=O)NC(=O)[C@@H]1CCCN1C(=O)[C@H](CO)NC(=O)[C@H](CO)NC(=O)[C@H](Cc1c[nH]cn1)NC(=O)[C@H](CCCNC(=N)N)NC(=O)[C@H](CC(C)C)NC(=O)[C@H](Cc1ccccc1)NC(=O)[C@H](CC(N)=O)NC(=O)[C@H](C)NC(=O)[C@H](CC(C)C)NC(=O)[C@H](CCCNC(=N)N)NC(=O)[C@H](CCC(N)=O)NC(=O)[C@@H](NC(=O)[C@H](C)NC(=O)[C@@H]1CSSC[C@H](NC(=O)[C@H](CCCCN)NC(=O)CC[C@H](NC(=O)CCCCCCCCCCCCCCCCCCC(=O)O)C(=O)O)C(=O)N[C@@H](CC(N)=O)C(=O)N[C@@H]([C@@H](C)O)C(=O)N[C@@H](C)C(=O)N[C@@H]([C@@H](C)O)C(=O)N1)[C@@H](C)O)C(=O)N1CCC[C@H]1C(=O)N[C@@H](CO)C(=O)N[C@@H](CO)C(=O)N[C@H](C(=O)N[C@@H](CC(N)=O)C(=O)N[C@H](C(=O)NCC(=O)N1CCC[C@H]1C(=O)N[C@@H](CCC(=O)O)C(=O)N[C@H](C(=O)N[C@@H](Cc1ccc(O)cc1)C(N)=O)[C@@H](C)O)C(C)C)[C@@H](C)O
notes: also called compound 29
For the molecule B2, the IC50 is 8.01 nM in test [1] and 0.577 nM in test [3]. In addition, the “Ratio hCT/hAmylin binding” value in test [2] amounted to 13.9.

B3: N^α1-[(4S)-4-carboxy-4-(19-carboxynonadecanoylamino)butanoyl]-[Glu14,Arg17,Pro21,Pro27,His34]-h-amylin (peptide)
peptide: {C20 diacid-γGlu}-KCNTATCATQRLAEFLRHSSPNFGAIPSSTNVGHNTY-NH2
modifications: disulfide 2-7
SMILES: CC[C@H](C)[C@H](NC(=O)[C@H](C)NC(=O)CNC(=O)[C@H](Cc1ccccc1)NC(=O)[C@H](CC(N)=O)NC(=O)[C@@H]1CCCN1C(=O)[C@H](CO)NC(=O)[C@H](CO)NC(=O)[C@H](Cc1c[nH]cn1)NC(=O)[C@H](CCCNC(=N)N)NC(=O)[C@H](CC(C)C)NC(=O)[C@H](Cc1ccccc1)NC(=O)[C@H](CCC(=O)O)NC(=O)[C@H](C)NC(=O)[C@H](CC(C)C)NC(=O)[C@H](CCCNC(=N)N)NC(=O)[C@H](CCC(N)=O)NC(=O)[C@@H](NC(=O)[C@H](C)NC(=O)[C@@H]1CSSC[C@H](NC(=O)[C@H](CCCCN)NC(=O)CC[C@H](NC(=O)CCCCCCCCCCCCCCCCCCC(=O)O)C(=O)O)C(=O)N[C@@H](CC(N)=O)C(=O)N[C@@H]([C@@H](C)O)C(=O)N[C@@H](C)C(=O)N[C@@H]([C@@H](C)O)C(=O)N1)[C@@H](C)O)C(=O)N1CCC[C@H]1C(=O)N[C@@H](CO)C(=O)N[C@@H](CO)C(=O)N[C@H](C(=O)N[C@@H](CC(N)=O)C(=O)N[C@H](C(=O)NCC(=O)N[C@@H](Cc1c[nH]cn1)C(=O)N[C@@H](CC(N)=O)C(=O)N[C@H](C(=O)N[C@@H](Cc1ccc(O)cc1)C(N)=O)[C@@H](C)O)C(C)C)[C@@H](C)O
notes: also called compound 17
As for B3, the IC50 was found to be 10.9 nM in test [1] and 0.878 nM in test [3]. Moreover, the “Ratio hCT/hAmylin binding” value in test [2] was 12.5.

B4: N^α1-[(4S)-4-carboxy-4-(19-carboxynonadecanoylamino)butanoyl]-[Arg17,Pro21,Pro27,Lys35]-h-amylin (peptide)
peptide: KCNTATCATQRLANFLRHSSPNFGAIPSSTNVGSKTY
modifications: C20 diacid-gGlu on the alpha amino group of the N-terminal residue; disulfide bridge Cys2-Cys7; C-terminal amide
notes: also called compound 34
As to B4, the 50% inhibitory concentration (IC50) worked out at 73.4 nM in test [1] and 1.14 nM in test [3]. The “Ratio hCT/hAmylin binding” value in test [2] worked out at 64.4.

B5: N^ε1-[(4S)-4-carboxy-4-[[(4S)-4-carboxy-4-(19-carboxynonadecanoylamino)butanoyl]amino]butanoyl]-[Asp14,Arg17,Pro21,Pro27,Asp35]-h-amylin (peptide)
peptide: K([γGlu-γGlu-C20 diacid])CNTATCATQRLADFLRHSSPNFGAIPSSTNVGSDTY-NH2
modifications: disulfide 2-7; N-terminus assumed
SMILES: CC[C@H](C)[C@H](NC(=O)[C@H](C)NC(=O)CNC(=O)[C@H](Cc1ccccc1)NC(=O)[C@H](CC(N)=O)NC(=O)[C@@H]1CCCN1C(=O)[C@H](CO)NC(=O)[C@H](CO)NC(=O)[C@H](Cc1c[nH]cn1)NC(=O)[C@H](CCCNC(=N)N)NC(=O)[C@H](CC(C)C)NC(=O)[C@H](Cc1ccccc1)NC(=O)[C@H](CC(=O)O)NC(=O)[C@H](C)NC(=O)[C@H](CC(C)C)NC(=O)[C@H](CCCNC(=N)N)NC(=O)[C@H](CCC(N)=O)NC(=O)[C@@H](NC(=O)[C@H](C)NC(=O)[C@@H]1CSSC[C@H](NC(=O)[C@@H](N)CCCCNC(=O)CC[C@H](NC(=O)CC[C@H](NC(=O)CCCCCCCCCCCCCCCCCCC(=O)O)C(=O)O)C(=O)O)C(=O)N[C@@H](CC(N)=O)C(=O)N[C@@H]([C@@H](C)O)C(=O)N[C@@H](C)C(=O)N[C@@H]([C@@H](C)O)C(=O)N1)[C@@H](C)O)C(=O)N1CCC[C@H]1C(=O)N[C@@H](CO)C(=O)N[C@@H](CO)C(=O)N[C@H](C(=O)N[C@@H](CC(N)=O)C(=O)N[C@H](C(=O)NCC(=O)N[C@@H](CO)C(=O)N[C@@H](CC(=O)O)C(=O)N[C@H](C(=O)N[C@@H](Cc1ccc(O)cc1)C(N)=O)[C@@H](C)O)C(C)C)[C@@H](C)O
notes: also called compound 2
Take B5: the IC50 was determined as 19.5 nM in test [1] and 0.411 nM in test [3]. Moreover, in test [2], the “Ratio hCT/hAmylin binding” value was found to be 47.5.

B6: N^α1-[(4S)-4-carboxy-4-(19-carboxynonadecanoylamino)butanoyl]-[Glu14,Arg17,Pro21,Pro27,Pro34]-h-amylin (peptide)
peptide: {C20 diacid-γGlu}-KCNTATCATQRLAEFLRHSSPNFGAIPSSTNVGPNTY-NH2
modifications: disulfide 2-7
SMILES: CC[C@H](C)[C@H](NC(=O)[C@H](C)NC(=O)CNC(=O)[C@H](Cc1ccccc1)NC(=O)[C@H](CC(N)=O)NC(=O)[C@@H]1CCCN1C(=O)[C@H](CO)NC(=O)[C@H](CO)NC(=O)[C@H](Cc1c[nH]cn1)NC(=O)[C@H](CCCNC(=N)N)NC(=O)[C@H](CC(C)C)NC(=O)[C@H](Cc1ccccc1)NC(=O)[C@H](CCC(=O)O)NC(=O)[C@H](C)NC(=O)[C@H](CC(C)C)NC(=O)[C@H](CCCNC(=N)N)NC(=O)[C@H](CCC(N)=O)NC(=O)[C@@H](NC(=O)[C@H](C)NC(=O)[C@@H]1CSSC[C@H](NC(=O)[C@H](CCCCN)NC(=O)CC[C@H](NC(=O)CCCCCCCCCCCCCCCCCCC(=O)O)C(=O)O)C(=O)N[C@@H](CC(N)=O)C(=O)N[C@@H]([C@@H](C)O)C(=O)N[C@@H](C)C(=O)N[C@@H]([C@@H](C)O)C(=O)N1)[C@@H](C)O)C(=O)N1CCC[C@H]1C(=O)N[C@@H](CO)C(=O)N[C@@H](CO)C(=O)N[C@H](C(=O)N[C@@H](CC(N)=O)C(=O)N[C@H](C(=O)NCC(=O)N1CCC[C@H]1C(=O)N[C@@H](CC(N)=O)C(=O)N[C@H](C(=O)N[C@@H](Cc1ccc(O)cc1)C(N)=O)[C@@H](C)O)C(C)C)[C@@H](C)O
notes: also called compound 32
In the case of B6, the IC50 in test [1] stood at 1.09 nM; in test [3], 0.1 nM. In addition, the “Ratio hCT/hAmylin binding” value in test [2] is 10.9.

By IC50 is commonly meant the concentration that inhibits the measured activity by half.
